Source: US7691590B2, “Reducing myelin-mediated inhibition of axon regeneration” (Children's Medical Center Corporation, priority 2001, dated 2010)
Like-named read-outs stand apart in the source and are kept apart here.

T1: Nogo receptor (NgR) (Homo sapiens, UniProt Q9BZR6)
T1 construct: both cDNAs contained the full-length coding region of the Nogo-66 receptor (NgR); expressed in transfected cells; host or cells: CHO cells stably expressing NgR (COS-7 for the library clones)
T1 sequence (Q9BZR6 27-473): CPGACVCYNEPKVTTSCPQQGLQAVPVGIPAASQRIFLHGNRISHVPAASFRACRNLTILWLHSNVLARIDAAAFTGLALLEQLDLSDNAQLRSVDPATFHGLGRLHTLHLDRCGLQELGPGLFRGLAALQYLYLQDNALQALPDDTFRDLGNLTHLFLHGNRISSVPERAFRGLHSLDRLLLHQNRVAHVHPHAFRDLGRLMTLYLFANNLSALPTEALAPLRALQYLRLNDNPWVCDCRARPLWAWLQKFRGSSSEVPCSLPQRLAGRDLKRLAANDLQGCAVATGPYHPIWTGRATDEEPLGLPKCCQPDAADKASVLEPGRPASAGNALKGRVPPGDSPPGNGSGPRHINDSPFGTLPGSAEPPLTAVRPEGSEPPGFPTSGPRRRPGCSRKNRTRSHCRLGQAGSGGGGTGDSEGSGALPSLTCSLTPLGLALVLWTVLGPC


Tests used:
[1] = tested on: growth cones of E13 chick DRG neurons; experiment: Growth cone collapse assay with E13 chick DRG explants; type: cell-based; conditions: E13 chick DRG
Source text: OMgp is a Physiological Nogo Receptor Ligand and Inhibitor of Neurite Outgrowth. To examine whether any GPI-linked proteins in CNS myelin may act as inhibitors of neurite outgrowth, we treated purified bovine white matter myelin with phosphatidylinositol-specific phospholipase C (PI-PLC) and examined the released proteins for their ability to alter growth cone morphology in a growth cone collapse assay using embryonic day 13 chick dorsal root ganglia (E13 DRG)^6,9,10. […] Since the size of this band was similar to that of a previously identified CNS myelin protein OMgp^11,12, we used antibodies specific for OMgp to detect enrichment of cleaved OMgp in the PI-PLC supernatants by Western blot. […] Next, we examined whether purified recombinant OMgp protein was able to act as an inhibitor of neurite outgrowth in two well-established in vitro assays, the growth cone collapse^6,9,13 and the neurite outgrowth assays^3-7,9.
Growth Cone Collapse and Neurite Outgrowth Assays. Chick E13 DRG and E7 retina were isolated and cultured as described previously^9,10. DRG explants cultured overnight were used for growth cone collapse assays. To assess the effects of PI-PLC treatment, cultures were pre-incubated with 2 U/ml PI-PLC for 30 min prior to treatment with individual test proteins for an additional 30 min. To express NgR in E7 retinal ganglion neurons, we infected the explants with recombinant HSV for 24 hr. After incubation with each test protein for 30 min, retinal explants were fixed in 4% paraformaldehyde and 15% sucrose. Infection of HSV-LacZ was detected by a standard b-galatosidase staining protocol^20. FLAG-NgR expression was detected by incubating paraformaldehyde-fixed cultures with M2 anti-FLAG antibody (Sigma). Bound antibody was detected by incubation with AP-conjugated […] IgG second antibody and reaction with NBT and BCIP (Vector labs). Growth cone collapse was quantified only in those positively stained for b-galatosidase or immunoreactive for the FLAG epitope.

[2] = tested on: chick E7 retinal ganglion neurons (RGN) expressing human NgR; experiment: Growth cone collapse in E7 retinal ganglion neurons expressing FLAG-NgR (HSV infection); type: cell-based; conditions: E7 RGN infected with HSV FLAG-NgR
Source text: To assess whether NgR is capable of mediating OMgp-induced inhibitory activity on neurite outgrowth, we next took a gain-of-function approach to examine whether expression of NgR was able to confer OMgp-responsiveness to otherwise insensitive neurons. It has been shown previously that chick E7 retinal ganglion neurons (RGN) are insensitive to Nogo-66, but that introduction of exogenous NgR in these neurons rendered their growth cones to be responsive to Nogo-66^9. Using the same strategy, we made a recombinant herpes simplex virus (HSV) that drives expression of a FLAG-tagged full-length human NgR (FLAG-NgR) in infected neurons. Upon infection, 80% of the E7 RGNs expressed the FLAG-NgR protein as assessed by immunocytochemistry with an anti-FLAG antibody. […] Furthermore, the growth cones of NgR-expressing axons also become collapsible by OMgp.
Growth Cone Collapse and Neurite Outgrowth Assays. […] Infection of HSV-LacZ was detected by a standard b-galatosidase staining protocol^20. FLAG-NgR expression was detected by incubating paraformaldehyde-fixed cultures with M2 anti-FLAG antibody (Sigma). Bound antibody was detected by incubation with AP-conjugated […] IgG second antibody and reaction with NBT and BCIP (Vector labs). Growth cone collapse was quantified only in those positively stained for b-galatosidase or immunoreactive for the FLAG epitope.

Nogo receptor (NgR) [3] = biological target: T1, Nogo receptor (NgR); conditions: read-out: binding affinity of NgR for Nogo-66; cited from earlier work
Nogo receptor (NgR) [4] = biological target: T1, Nogo receptor (NgR); experiment: Cell surface binding of AP fusion proteins to NgR-expressing cells (saturation analysis); conditions: CHO cell line stably expressing NgR; read-out: binding affinity of expressed NgR for AP-OM
Procedure: To investigate the mechanisms by which OMgp inhibits neurite outgrowth, we used an expression cloning strategy^9,13,16 to identify cell surface OMgp-binding proteins. […] From pools of an adult human brain cDNA expression library, we isolated two cDNAs that encoded OMgp-binding proteins. […] We then established a CHO cell line stably expressing the NgR and determined the binding affinity of expressed NgR for AP-OM as 5 nM, similar to what had been determined for Nogo-66 (7 nM, ref. 9). […] We next performed co-precipitation experiments by incubating GST or a GST fusion protein containing the entire extracellular domain of NgR (GST-NgR) with OM-his alone or in the presence of AP or AP-66 protein. […] We next determined which domain(s) of OMgp was responsible for binding to NgR. Like NgR, OMgp is also a GPI-linked protein containing a leucine-rich repeat (LRR) domain. […]
Cell surface binding and expression cloning were performed as described previously^4,13,17. […] After extensive washing and heat inactivation, the bound proteins were detected by AP staining using nitro blue tetrazolium (NBT) and 5-bromo-4-chloro-3-indoyl phosphate (BCIP) as substrate. For saturation analysis, we disrupted cells and detected bound AP fusion proteins using r-nitrophenyl phosphate as substrate. […]

| Molecule | growth cone collapsing activity after PI-PLC treatment of the neurons ([1]; PI-PLC pre-incubation) | growth cone collapse response in NgR-expressing neurons [2] | Kd (Nogo receptor (NgR) [3]) | growth cone collapsing activity [1] | Kd (Nogo receptor (NgR) [4]) |
| --- | --- | --- | --- | --- | --- |
| Nogo-66: 66 amino acid extracellular domain of Nogo-A (protein, left off: large carriers, 66 amino acid extracellular domain of Nogo-A) RIYKGVIQAIQKSDEGHPFRAYLESEVAISEELVQKYSNSALGHVNCTIKELRRLFLVDDLVDSLK | insensitive | conferred a growth cone collapse response | 7 nM |  |  |
| AP-OM: alkaline phosphatase fusion protein containing mouse OMgp, polyhistidine and myc tagged (protein, left off: large carriers; small tags and cut ends, alkaline phosphatase fusion protein containing mouse OMgp, polyhistidine and myc tagged) ICPLQCTCTERHRHVDCSGRNLTTLPPGLQENIIHLNLSYNHFTDLHNQLTPYTNLRTLDISNNRLESLPAQLPRSLWNMSAANNNIKLLDKSDTAYQWNLKYLDVSKNMLEKVVLIKNTLRSLEVLNLSSNKLWTVPTNMPSKLHIVDLSNNSLTQILPGTLINLTNLTHLYLHNNKFTFIPEQSFDQLLQLQEITLHNNRWSCDHKQNITYLLKWVMETKAHVIGTPCSKQVSSLKEQSMYPTPPGFTSSLFTMSEMQTVDTINSLSMVTQPKVTKTPKQYRGKETTFGVTLSKDTTFSSTDRAVVAYPEDTPTEMTNSHEAAAATLTIHLQDGMSSNASLTSATKSPPSPVTLSIARGMPNNFSEMPRQSTTLNLRREETTANGNTRPPS |  |  |  | induce collapse | 5 nM |
